# Results published in patent US20240309340.
# Where a chain is given by its changes, count along the chain named. Read-outs that look alike come from different tables or passages of the source.
# How the values were obtained:
# [1] = molecular target: T1, tsH042' Phi29 DNA polymerase (K143S, sso7d fusion) (Bacillus phage phi29?) (UniProt P03680); conditions: template aligned length, single molecule sequencing
# T1 sequence: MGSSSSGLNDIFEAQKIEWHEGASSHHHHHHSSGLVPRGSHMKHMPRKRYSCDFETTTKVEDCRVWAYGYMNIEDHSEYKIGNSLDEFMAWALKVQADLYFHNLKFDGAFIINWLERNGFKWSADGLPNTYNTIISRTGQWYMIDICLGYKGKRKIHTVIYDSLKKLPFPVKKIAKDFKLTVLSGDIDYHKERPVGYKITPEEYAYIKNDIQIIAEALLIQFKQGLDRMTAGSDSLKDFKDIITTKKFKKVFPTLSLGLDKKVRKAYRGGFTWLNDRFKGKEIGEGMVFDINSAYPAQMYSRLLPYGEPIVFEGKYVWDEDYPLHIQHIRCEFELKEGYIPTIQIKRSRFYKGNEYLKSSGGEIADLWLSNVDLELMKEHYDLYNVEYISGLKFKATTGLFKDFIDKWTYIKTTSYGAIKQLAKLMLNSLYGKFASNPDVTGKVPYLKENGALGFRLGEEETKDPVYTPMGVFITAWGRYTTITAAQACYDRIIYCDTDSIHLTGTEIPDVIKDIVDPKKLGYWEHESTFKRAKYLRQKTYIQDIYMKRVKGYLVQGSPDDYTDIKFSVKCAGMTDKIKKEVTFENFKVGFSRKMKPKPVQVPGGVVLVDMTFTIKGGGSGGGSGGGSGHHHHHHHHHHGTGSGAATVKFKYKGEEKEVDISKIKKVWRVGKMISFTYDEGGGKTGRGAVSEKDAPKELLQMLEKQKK
# [2] = molecular target: T2, tsH039' Phi29 DNA polymerase (Y148L, sso7d fusion) (Bacillus phage phi29?) (UniProt P03680); conditions: template aligned length, single molecule sequencing
# T2 sequence: T1 sequence with S184K, Y189L
# [3] = molecular target: T3, tsH034' Phi29 DNA polymerase (K143D, sso7d fusion) (Bacillus phage phi29?) (UniProt P03680); conditions: template aligned length, single molecule sequencing
# T3 sequence: T1 sequence with S184D
# [4] = test system: H004 Phi29 DNA polymerase Y224K,E239G,V250I,L253A,E375Y,A437G,A484E,E508R,D510K,K512Y,E515Q,D570M (Bacillus phage phi29?); assay: cleavage_in_vitro; conditions: primer hydrolysed in 2 min
# [5] = test system: H019 Phi29 DNA polymerase Y224K,E239G,V250I,L253A,E375A,A437G,A484E,E508R,D510K,K512Y,E515Q,D570M (Bacillus phage phi29?); assay: cleavage_in_vitro; conditions: RCA ++++
# [6] = test system: H020 Phi29 DNA polymerase Y224K,E239G,V250I,L253A,E375S,A437G,A484E,E508R,D510K,K512Y,E515Q,D570M (Bacillus phage phi29?); assay: cleavage_in_vitro; conditions: RCA ++++
# [7] = test system: G087 Phi29 DNA polymerase Y148L Y148L (Bacillus phage phi29?); assay: cleavage_in_vitro; conditions: RCA +++
# [8] = test system: H022 Phi29 DNA polymerase Y224K,E239G,V250I,L253A,E375Y,K379S,A437G,A484E,E508R,D510K,K512Y,E515Q,D570M (Bacillus phage phi29?); assay: cleavage_in_vitro; conditions: RCA ++++
# [9] = test system: G077 Phi29 DNA polymerase D145A D145A (Bacillus phage phi29?); assay: cleavage_in_vitro; conditions: RCA +++
# [10] = test system: G059 Phi29 DNA polymerase E14I E14I (Bacillus phage phi29?); assay: cleavage_in_vitro; conditions: RCA +++
# [11] = test system: G075 Phi29 DNA polymerase K143D K143D (Bacillus phage phi29?); assay: cleavage_in_vitro; conditions: RCA +++
# [12] = test system: H004 Phi29 DNA polymerase Y224K,E239G,V250I,L253A,E375Y,A437G,A484E,E508R,D510K,K512Y,E515Q,D570M (Bacillus phage phi29?); conditions: conversion of modified dNTPs; 100 pM primer/template, 300 pM protein, 5 mM Mg(OAc)2, 10 mM DTT, 30 min; Table 5 gives 19.9%
# [13] = test system: H019 Phi29 DNA polymerase Y224K,E239G,V250I,L253A,E375A,A437G,A484E,E508R,D510K,K512Y,E515Q,D570M (Bacillus phage phi29?); conditions: conversion of modified dNTPs; 5 mM Mg(OAc)2
# [14] = test system: H020 Phi29 DNA polymerase Y224K,E239G,V250I,L253A,E375S,A437G,A484E,E508R,D510K,K512Y,E515Q,D570M (Bacillus phage phi29?); conditions: conversion of modified dNTPs; 5 mM Mg(OAc)2
# [15] = test system: H022 Phi29 DNA polymerase Y224K,E239G,V250I,L253A,E375Y,K379S,A437G,A484E,E508R,D510K,K512Y,E515Q,D570M (Bacillus phage phi29?); conditions: conversion of modified dNTPs; 5 mM Mg(OAc)2
# [16] = test system: H034 Phi29 DNA polymerase K143D,Y224K,E239G,V250I,L253A,E375Y,A437G,A484E,E508R,D510K,K512Y,E515Q,D570M (Bacillus phage phi29?); conditions: conversion of modified dNTPs; 5 mM Mg(OAc)2
substance,measurement,setting,value
circular DNA template with primer (single molecule sequencing),activity,[1],342 bases
same,activity,[2],436 bases
same,activity,[3],282 bases
fluorescent-labelled primer (exonuclease substrate),activity,[4],38%
same,activity,[5],39.1%
same,activity,[6],56.5%
same,activity,[7],34.5%
same,activity,[8],62.2%
same,activity,[9],68.6%
same,activity,[10],52.6%
same,activity,[11],37.5%
primer/template (modified dNTP conversion),activity,[12],48.4%
same,activity,[13],22.2%
same,activity,[14],46.2%
same,activity,[15],32.5%
same,activity,[16],5.4%
